Experiment [1] concerns the target T1, human fibroblast activation protein (huFAP) on cells (human, UniProt Q12884 1-760).
T1 construct: Transfected in NIH/3T3-huFAP clone 39; also called NIH/3T3-huFAP clone 39; WM266-4
Description: flow cytometry on MV-3 cells; PE anti-human IgG Fc-gamma F(ab')2; MFI.

For experiment [2], the target named is T2, human 4-1BB (CD137) on cells (human, UniProt Q07011 24-255).
T2 construct: whole, on cells; also called 4-1BB+ human T cells
Description: flow cytometry on activated human T cells, gate CD4+; PE anti-human IgG Fc-gamma F(ab')2; MFI baseline corrected. A general note: A flow cytometer gives signals particle by particle.

The target in experiment [3] is T1, human fibroblast activation protein …. Description: flow cytometry on WM-266-4 cells; PE anti-human IgG Fc-gamma F(ab')2; MFI.
The next experiment deals with T3, cyCD19 ECD (cynomolgus).
T3 construct: extracellular domain; also called cynomolgus CD19 ectodomain
The experiment in a line: binding to CD19 ECD; method not stated.

The target in experiment [4] is T4, monomeric human CD19 Fc (kih) fusion protein (human, UniProt P0DOX5 223-449 = IgG part).
T4 construct: also called monomeric CD19-Fc
Description: SPR (ProteOn XPR36), Fab from bacterial supernatant captured by anti-human Fab, monomeric CD19-Fc as analyte.
Description: In order to further characterize the ELISA-positive clones, the off-rate was measured by surface plasmon resonance and compared with the parental humanized clone 8B8.
For this experiment, 7000 RU of polyclonal anti-human Fab antibody were immobilized on all 6 channels of a GLM chip by Amine coupling (NaAcetate pH4.5, 25 μl/min, 240 s) (vertical orientation). Each antibody-containing bacterial supernatant was filtered and 2-fold diluted with PBS, and then injected for 360s at 25 μl/minute to achieve immobilization levels of between 100 and 400 response units (RU) in vertical orientation. […] Regeneration was performed by two pulses of 10 mM glycine pH 1.5 and 50 mM NaOH for 30 s at 90 ul/min (horizontal orientation). Dissociation rate constants (koff) were calculated using a simple one-to-one Langmuir binding model in ProteOn Manager v3.1 software by simultaneously fitting the sensorgrams.

The next experiment addresses T5, huCD19 ECD (human, UniProt P15391 20-291).
T5 construct: also called human CD19 ectodomain
T5 sequence: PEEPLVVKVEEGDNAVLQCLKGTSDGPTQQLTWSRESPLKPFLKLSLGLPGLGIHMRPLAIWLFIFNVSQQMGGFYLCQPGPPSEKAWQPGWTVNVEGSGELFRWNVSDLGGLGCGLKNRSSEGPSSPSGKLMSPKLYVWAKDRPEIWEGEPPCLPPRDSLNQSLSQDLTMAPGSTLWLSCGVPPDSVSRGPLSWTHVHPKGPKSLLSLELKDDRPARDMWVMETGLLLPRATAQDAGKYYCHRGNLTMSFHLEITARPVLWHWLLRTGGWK
The experiment in a line: binding to CD19 ECD; method not stated.

In general, EC50 (read off the curve) refers to the concentration at which the effect is half-maximal. Usually EC50 stands for the concentration at which the effect is half-maximal. Low readings indicate higher potency in that assay, high ones lower potency in that assay. By koff is commonly meant a measure of how fast the partners let go of each other.

T2 sequence (Q07011 24-255): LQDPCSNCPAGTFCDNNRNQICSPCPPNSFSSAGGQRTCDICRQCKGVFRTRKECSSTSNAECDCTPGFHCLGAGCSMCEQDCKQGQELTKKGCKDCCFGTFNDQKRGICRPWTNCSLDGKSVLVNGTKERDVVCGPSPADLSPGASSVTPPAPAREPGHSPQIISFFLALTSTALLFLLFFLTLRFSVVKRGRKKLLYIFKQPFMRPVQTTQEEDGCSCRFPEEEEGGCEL

B1: bivalent binding FAP (28H1)-targeted huIgG1 P329G LALA (antibody, V domains shown)
VH: EVQLLESGGGLVQPGGSLRLSCAASGFTFSSHAMSWVRQAPGKGLEWVSAIWASGEQYYADSVKGRFTISRDNSKNTLYLQMNSLRAEDTAVYYCAKGWLGNFDYWGQGTLVTVSS
VL: EIVLTQSPGTLSLSPGERATLSCRASQSVSRSYLAWYQQKPGQAPRLLIIGASTRATGIPDRFSGSGSGTDFTLTISRLEPEDFAVYYCQQGQVIPPTFGQGTKVEIK
notes: the rest is said to be human IgG1 P329G LALA; also called FAP(28H1)-targeted hu IgG1 P329G LALA control molecule
On to B1, for which the half-maximal effective concentration (EC50 (read off the curve)) in experiment [1] and in experiment [3] was around 1 nM throughout. Also, the binding result in experiment [2] was “no binding (tested: about 300 nM)”.

B2: wild-type humanized anti-human CD19 antibody 8B8 (antibody, V domains shown)
VH: QVQLVQSGAEVKKPGASVKVSCKASGYTFTDYIMHWVRQAPGQGLEWMGYINPYNDGSKYTEKFNGRVTMTSDTSISTAYMELSRLRSDDTAVYYCARGTYYYGSALFDYWGQGTTVTVSS
VL: DIVMTQTPLSLSVTPGQPASISCKSSQSLENSNGNTYLNWYLQKPGQSPQLLIYRVSKRFSGVPDRFSGSGSGTDFTLKISRVEAEDVGVYYCLQLTHVPYTFGQGTKLEIK
notes: also called wt 8B8
In turn, B2 returned an EC50 with cyCD19 ECD of 0.313 µg/mL.

B3: affinity-matured 8B8-derived clone 2B11, Fab in bacterial supernatant (Fab, V domains shown)
VH: QVQLVQSGAEVKKPGASVKVSCKASGYTFTDYIMHWVRQAPGQGLEWMGYINPYNDGSKYTEKFQGRVTMTSDTSISTAYMELSRLRSDDTAVYYCARGTYYYGPQLFDYWGQGTTVTVSS
VL: DIVMTQTPLSLSVTPGQPASISCKSSQSLETSTGTTYLNWYLQKPGQSPQLLIYRVSKRFSGVPDRFSGSGSGTDFTLKISRVEAEDVGVYYCLQLLEDPYTFGQGTKLEIK
notes: tested as a soluble Fab from bacterial supernatant; also called 8B8-2B11; CD19 (8B8-2B11)
For the molecule B3, the dissociation rate constant (koff) in experiment [4] turned out to be 4.37e-06 s⁻¹.

B4: humanized anti-human CD19 antibody clone 8B8-018 (antibody, V domains shown)
VH: QVQLVQSGAEVKKPGASVKVSCKASGYTFTDYIMHWVRQAPGQGLEWMGYINPYNDGSKYTEKFQGRVTMTSDTSISTAYMELSRLRSDDTAVYYCARGTYYYGSALFDYWGQGTTVTVSS
VL: DIVMTQTPLSLSVTPGQPASISCKSSQSLENPNGNTYLNWYLQKPGQSPQLLIYRVSKRFSGVPDRFSGSGSGTDFTLKISRVEAEDVGVYYCLQLTHVPYTFGQGTKLEIK
notes: also called CD19 (8B8-018)
With B4, the 50% effective concentration (EC50) with cyCD19 ECD turned out to be 0.255 µg/mL; with huCD19 ECD it was 0.084 µg/mL.

Source of the values: patent US20200270321A1 (Hoffmann-La Roche, published 2020).
